Where two headings read alike, the source gives them in different places. Square brackets hold non-standard residues; d marks the D form. Ends that are not written are not given here. Peptide text beside a SMILES is read from it. Blc = γ-butyrolactone-γ-carbonyl group; pGlu = O=C1CC[C@@H](C(=O)O)N1; ΔPro = O=C(O)[C@@H]1C=CCN1; Nva = CCC[C@H](N)C(=O)O; His(3-Me) = 3-Me-His
Tests used:
[1] = target: T1, human TRH receptor (Homo sapiens, UniProt P34981); test: Antagonism of [3H]TRH binding in CHO dhfr- cells transformed with human TRH receptor DNA (Examples 5 and 6); set-up: translation frame (open reading frame) of the human TRH receptor was constructed on pUC118; expressed in transfected cells; host or cells: CHO dhfr- cells (plasmid pAKKO1.11 with the human TRH receptor open reading frame); conditions: for inhibition at 10 µM / inhibition at 100 µM / inhibition at 1000 µM: 1 h; for Antagonistic binding activity to the human TRH receptor, in words: benzodiazepine compounds, 10 μM to 1 mM; for Antagonistic Rate (%) at Each Concentration (-log M): 60 min
T1 sequence (P34981 1-398): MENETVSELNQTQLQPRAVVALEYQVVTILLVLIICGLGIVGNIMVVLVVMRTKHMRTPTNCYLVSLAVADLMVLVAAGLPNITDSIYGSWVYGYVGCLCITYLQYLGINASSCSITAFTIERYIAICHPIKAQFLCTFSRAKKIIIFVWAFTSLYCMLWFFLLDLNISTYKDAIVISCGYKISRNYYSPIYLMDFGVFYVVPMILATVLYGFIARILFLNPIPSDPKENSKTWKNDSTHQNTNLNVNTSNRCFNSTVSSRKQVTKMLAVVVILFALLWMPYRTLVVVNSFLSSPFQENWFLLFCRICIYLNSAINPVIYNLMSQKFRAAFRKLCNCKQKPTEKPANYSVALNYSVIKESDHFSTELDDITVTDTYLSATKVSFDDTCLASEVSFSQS

[2] = target: T2, human TRH receptor protein (human); test: competition with 10 nM 3H-TRH, CHO cells expressing human TRH receptor; compound at 10^-5 M
T2 chain: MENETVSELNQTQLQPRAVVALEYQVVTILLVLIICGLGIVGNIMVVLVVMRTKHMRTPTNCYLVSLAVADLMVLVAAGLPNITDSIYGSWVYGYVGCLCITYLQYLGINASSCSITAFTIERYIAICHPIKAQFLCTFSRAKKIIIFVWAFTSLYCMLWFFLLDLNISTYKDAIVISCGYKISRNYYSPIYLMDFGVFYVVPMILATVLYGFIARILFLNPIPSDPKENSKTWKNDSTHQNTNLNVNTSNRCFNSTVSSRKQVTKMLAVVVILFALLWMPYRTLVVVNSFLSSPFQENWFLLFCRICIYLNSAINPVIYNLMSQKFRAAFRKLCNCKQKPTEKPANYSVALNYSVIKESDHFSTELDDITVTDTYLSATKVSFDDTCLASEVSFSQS

[3] = target: T2, human TRH receptor protein; test: competition with 10 nM 3H-TRH, CHO cells expressing human TRH receptor; compound at 10^-4 M
[4] = target: T2, human TRH receptor protein; test: competition with 18.3 nM 3H-TRH, CHO cells expressing human TRH receptor; compound at 10^-6 M
Protocol: (§1) In Table 2, the degree of a reduction in the binding of [^3H] TRH in the case where the TRH analogous compound having respective concentrations was added to the total binding of [^3H] TRH in the case where no TRH analogous compound existed was indicated as percentage. The specific activity of [^3H] TRH used in the experiment was 83.04 Ci/mmol, and this was added to give a concentration of 10 nM in the reaction solution. For the compounds indicated by (*1) in the table, the specific activity of [^3H] TRH was 45 Ci/mmol, and this was added to give a concentration of 18.3 nM in the reaction solution.

[5] = target: T2, human TRH receptor protein; test: competition with 18.3 nM 3H-TRH, CHO cells expressing human TRH receptor; compound at 10^-5 M
Protocol: as §1

[6] = target: T2, human TRH receptor protein; test: competition with 18.3 nM 3H-TRH, CHO cells expressing human TRH receptor; compound at 10^-9 M
Protocol: as §1

[7] = target: T2, human TRH receptor protein; test: competition with 18.3 nM 3H-TRH, CHO cells expressing human TRH receptor; compound at 10^-10 M
Protocol: as §1

[8] = target: T2, human TRH receptor protein; test: competition with 18.3 nM 3H-TRH, CHO cells expressing human TRH receptor; compound at 10^-7 M
Protocol: as §1

[9] = target: T2, human TRH receptor protein; test: competition with 18.3 nM 3H-TRH, CHO cells expressing human TRH receptor; compound at 10^-8 M
Protocol: as §1

[10] = target: T2, human TRH receptor protein; test: competition with 10 nM 3H-TRH, CHO cells expressing human TRH receptor; compound at 10^-9 M
[11] = target: T2, human TRH receptor protein; test: competition with 10 nM 3H-TRH, CHO cells expressing human TRH receptor; compound at 10^-6 M
Protocol: as §1

[12] = target: T2, human TRH receptor protein; test: competition with 10 nM 3H-TRH, CHO cells expressing human TRH receptor; compound at 10^-10 M
Protocol: as §1

[13] = target: T2, human TRH receptor protein; test: competition with 10 nM 3H-TRH, CHO cells expressing human TRH receptor; compound at 10^-12 M
Protocol: as §1

[14] = target: T2, human TRH receptor protein; test: competition with 10 nM 3H-TRH, CHO cells expressing human TRH receptor; compound at 10^-11 M
Protocol: as §1

[15] = target: T2, human TRH receptor protein; test: competition with 10 nM 3H-TRH, CHO cells expressing human TRH receptor; compound at 10^-7 M
Protocol: as §1

[16] = target: T2, human TRH receptor protein; test: competition with 10 nM 3H-TRH, CHO cells expressing human TRH receptor; compound at 10^-8 M
[17] = read-out: Antagonistic activity (TABLE 1; percentage to that of the control)
[18] = -log M = 4, 10 nM [3H]TRH, read-out: Antagonistic Rate (%) at Each Concentration (-log M)
[19] = -log M = 5, 10 nM [3H]TRH, read-out: Antagonistic Rate (%) at Each Concentration (-log M)

`CNC1=Nc2ccc(Cl)cc2C(c2ccccc2)=[N+]([O-])C1` [Chlordiazepoxide, chlordiazepoxide] gave an inhibition at 10 µM [1, 17] of -2.2%, an inhibition at 100 µM [1, 17] of 7.1% and an inhibition at 1000 µM [1, 17] of 46.8%. For the same molecule, the “Antagonistic binding activity to the human TRH receptor, in words” value (shortened to “Antagonistic binding activity”) [1] was “antagonistic activity increased in order of midazolam, chlordiazepoxide and oxazepam”.

`O=C1N[C@@H](Cc2c[nH]cn2)C(=O)N2CCC[C@@H]12` [Compound 2, Cyclo(His--Pro) His Pro-Diketopiperazine] gave an inhibition at 100 µM [1, 18] of -1.1% and an inhibition at 10 µM [1, 19] of 0.6%.

Molecule `NC(=O)[C@@H]1CCCN1C(=O)[C@H](Cc1ccccc1)NC(=O)[C@@H]1CCC(=O)N1` [Compound 14, pGlu Phe Pro NH2] ([pGlu]-Phe-Pro-NH2) has an inhibition at 100 µM [1, 18] of 96.2% and an inhibition at 10 µM [1, 19] of 74.2%.

`CCC[C@H](NC(=O)[C@@H]1CCC(=O)N1)C(=O)N1CCC[C@H]1C(N)=O` [Compound 15, pGlu NVal Pro NH2] ([pGlu]-[Nva]-Pro-NH2) showed an inhibition at 100 µM [1, 18] of 78.6% and an inhibition at 10 µM [1, 19] of 33.4%.

In the case of `CN1C(=O)CN=C(c2ccccc2F)c2cc([N+](=O)[O-])ccc21` [Flunitrazepam, flunitrazepam], the inhibition at 10 µM [1, 17] is reported as -0.5%, the inhibition at 100 µM [1, 17] is reported as -4% and the inhibition at 1000 µM [1, 17] is reported as -13.7%. The “Antagonistic binding activity” value [1] was “no antagonistic binding was observed at all”.

`Cc1ncc2n1-c1ccc(Cl)cc1C(c1ccccc1F)=NC2` [Midazolam, midazolam] gave an inhibition at 10 µM [1, 17] of 2.6%, an inhibition at 100 µM [1, 17] of 12% and an inhibition at 1000 µM [1, 17] of 69.7%. The “Antagonistic binding activity” value [1] was “antagonistic activity increased in order of midazolam, chlordiazepoxide and oxazepam”.

With “pGlu His Pro Gly Lys ([pGlu]HPGK) [Compound 3]” the “Antagonistic Rate (%) at Each Concentration (-log M)” value ([1]; -log M = 5, 10 nM [3H]TRH) was 31.9% and the “Antagonistic Rate (%) at Each Concentration (-log M)” value ([1]; -log M = 6, 10 nM [3H]TRH, 1 µM) was -0.6%.

B1: pGlu Phe Pro NH2 (peptide)
peptide: [pGlu]-Phe-Pro-NH2
With B1 the “Antagonistic Rate (%)” value [2] was 74.2% and the “Antagonistic Rate (%)” value [3] was 96.2%.

B2: Cyclo(His--Pro) His Pro-Diketopiperazine (peptide)
peptide: HP
modifications: cyclic dipeptide (diketopiperazine) of His and Pro
B2 was tested, and the “Antagonistic Rate (%)” value [2] was 0.6% and the “Antagonistic Rate (%)” value [3] was -1.1%.

B3: Glu His Pro NH2 (peptide)
peptide: Glu-His-Pro-NH2
B3 was tested, and the “Antagonistic Rate (%)” value [4] was 70.7%, the “Antagonistic Rate (%)” value [5] was 95.3% and the “Antagonistic Rate (%)” value [6] was 1%. For the same molecule, the “Antagonistic Rate (%)” value [7] was 2%, the “Antagonistic Rate (%)” value [8] was 19.7% and the “Antagonistic Rate (%)” value [9] was 1.8%.

B4: Blc His Pro (peptide)
peptide: Blc-His-Pro
For B4, the “Antagonistic Rate (%)” value [2] was -0.1% and the “Antagonistic Rate (%)” value [3] was 0.7%.

B5: TRH (pGlu His Pro NH2) (peptide)
peptide: [pGlu]-His-Pro-NH2
B5 was tested, and the “Antagonistic Rate (%)” value [10] was 7.2%, the “Antagonistic Rate (%)” value [4] was 97.8% and the “Antagonistic Rate (%)” value [11] was 98.7%. For the same molecule, the “Antagonistic Rate (%)” value [2] was 99.7%, the “Antagonistic Rate (%)” value [12] was 0.3% and the “Antagonistic Rate (%)” value [5] was 99.7%. For the same molecule, the “Antagonistic Rate (%)” value [6] was 4.2%, the “Antagonistic Rate (%)” value [13] was 0% and the “Antagonistic Rate (%)” value [14] was 0.7%. The “Antagonistic Rate (%)” value [15] was 90.7%, the “Antagonistic Rate (%)” value [7] was -0.7% and the “Antagonistic Rate (%)” value [16] was 52%. For the same molecule, the “Antagonistic Rate (%)” value [8] was 83.9% and the “Antagonistic Rate (%)” value [9] was 39.8%.

B6: pGlu 3-Me-His Pro NH2 (peptide)
peptide: [pGlu]-[His(3-Me)]-Pro-NH2
For B6, the “Antagonistic Rate (%)” value [10] was 20%, the “Antagonistic Rate (%)” value [2] was 97.9% and the “Antagonistic Rate (%)” value [12] was -4.4%. For the same molecule, the “Antagonistic Rate (%)” value [13] was -6.5%, the “Antagonistic Rate (%)” value [14] was -7.1% and the “Antagonistic Rate (%)” value [16] was 85%.

B7: pGlu Glu Pro NH2 (peptide)
peptide: [pGlu]-Glu-Pro-NH2
SMILES: NC(=O)[C@@H]1CCCN1C(=O)[C@H](CCC(=O)O)NC(=O)[C@@H]1CCC(=O)N1
B7 was tested, and the “Antagonistic Rate (%)” value [2] was -2.9%.

B8: pGLU His Pro (peptide)
peptide: [pGlu]-His-Pro
In the case of B8, the “Antagonistic Rate (%)” value [2] is reported as 11.8% and the “Antagonistic Rate (%)” value [3] is reported as 40.8%.

B9: pGlu His 3,4-dihydro-Pro NH2 (peptide)
peptide: [pGlu]-His-[ΔPro]-NH2
SMILES: NC(=O)[C@@H]1C=CCN1C(=O)[C@H](Cc1c[nH]cn1)NC(=O)[C@@H]1CCC(=O)N1
For B9, the “Antagonistic Rate (%)” value [4] was 98.3%, the “Antagonistic Rate (%)” value [5] was 99.7% and the “Antagonistic Rate (%)” value [6] was 7%. The “Antagonistic Rate (%)” value [7] was 2.2%, the “Antagonistic Rate (%)” value [8] was 84.6% and the “Antagonistic Rate (%)” value [9] was 39.1%.

B10: pGlu NVal Pro NH2 (peptide)
peptide: [pGlu]-[Nva]-Pro-NH2
SMILES: CCC[C@H](NC(=O)[C@@H]1CCC(=O)N1)C(=O)N1CCC[C@H]1C(N)=O
With B10 the “Antagonistic Rate (%)” value [2] was 33.4% and the “Antagonistic Rate (%)” value [3] was 78.6%.
